T1: human Y2 receptor (human, UniProt P49146 1-381)
T1 sequence (looked up): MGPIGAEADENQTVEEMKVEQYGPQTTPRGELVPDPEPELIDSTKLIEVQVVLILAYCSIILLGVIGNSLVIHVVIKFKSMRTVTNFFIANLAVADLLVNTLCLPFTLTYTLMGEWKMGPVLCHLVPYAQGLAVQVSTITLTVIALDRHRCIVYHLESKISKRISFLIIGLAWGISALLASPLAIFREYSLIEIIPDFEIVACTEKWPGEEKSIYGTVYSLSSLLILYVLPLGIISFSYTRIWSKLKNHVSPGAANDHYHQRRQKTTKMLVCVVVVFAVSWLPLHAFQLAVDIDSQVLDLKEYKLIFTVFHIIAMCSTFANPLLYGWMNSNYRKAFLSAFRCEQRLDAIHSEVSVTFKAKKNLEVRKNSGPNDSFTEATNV

B1: Ac-[Glu23, D-Pro24, Cha27,28,36, Lys30, Aib31]-PYY(23-36) (peptide)
peptide: Ac-E[dP]RH[Cha][Cha]NK[Aib]TRQR[Cha]-NH2
SMILES: CC(=O)N[C@@H](CCC(=O)O)C(=O)N1CCC[C@@H]1C(=O)N[C@@H](CCCNC(=N)N)C(=O)N[C@@H](Cc1c[nH]cn1)C(=O)N[C@@H](CC1CCCCC1)C(=O)N[C@@H](CC1CCCCC1)C(=O)N[C@@H](CC(N)=O)C(=O)N[C@@H](CCCCN)C(=O)NC(C)(C)C(=O)N[C@H](C(=O)N[C@@H](CCCNC(=N)N)C(=O)N[C@@H](CCC(N)=O)C(=O)N[C@@H](CCCNC(=N)N)C(=O)N[C@@H](CC1CCCCC1)C(N)=O)[C@@H](C)O
notes: also called compound No. 137
B2: Morpholinocarbonyl-[D-Pro24, Cha27,36, Leu(Me)28, Lys30, Aib31]-PYY(23-36) (peptide)
peptide: Morpholinocarbonyl-S[dP]RH[Cha][tBuAla]NK[Aib]TRQR[Cha]-NH2
SMILES: C[C@@H](O)[C@H](NC(=O)C(C)(C)NC(=O)[C@H](CCCCN)NC(=O)[C@H](CC(N)=O)NC(=O)[C@H](CC(C)(C)C)NC(=O)[C@H](CC1CCCCC1)NC(=O)[C@H](Cc1c[nH]cn1)NC(=O)[C@H](CCCNC(=N)N)NC(=O)[C@H]1CCCN1C(=O)[C@H](CO)NC(=O)N1CCOCC1)C(=O)N[C@@H](CCCNC(=N)N)C(=O)N[C@@H](CCC(N)=O)C(=O)N[C@@H](CCCNC(=N)N)C(=O)N[C@@H](CC1CCCCC1)C(N)=O
notes: also called compound No. 187
B3: Morpholinocarbonyl-[Asp23, D-Pro24, Cha27,28,36, Aib31]-PYY(23-36) (peptide)
peptide: Morpholinocarbonyl-D[dP]RH[Cha][Cha]NL[Aib]TRQR[Cha]-NH2
SMILES: CC(C)C[C@H](NC(=O)[C@H](CC(N)=O)NC(=O)[C@H](CC1CCCCC1)NC(=O)[C@H](CC1CCCCC1)NC(=O)[C@H](Cc1c[nH]cn1)NC(=O)[C@H](CCCNC(=N)N)NC(=O)[C@H]1CCCN1C(=O)[C@H](CC(=O)O)NC(=O)N1CCOCC1)C(=O)NC(C)(C)C(=O)N[C@H](C(=O)N[C@@H](CCCNC(=N)N)C(=O)N[C@@H](CCC(N)=O)C(=O)N[C@@H](CCCNC(=N)N)C(=O)N[C@@H](CC1CCCCC1)C(N)=O)[C@@H](C)O
notes: also called compound No. 173
B4: Ac-[Glu23, D-Pro24, Cha27,36, Aib28,31, Lys30]-PYY(23-36) (peptide)
peptide: Ac-E[dP]RH[Cha][Aib]NK[Aib]TRQR[Cha]-NH2
SMILES: CC(=O)N[C@@H](CCC(=O)O)C(=O)N1CCC[C@@H]1C(=O)N[C@@H](CCCNC(=N)N)C(=O)N[C@@H](Cc1c[nH]cn1)C(=O)N[C@@H](CC1CCCCC1)C(=O)NC(C)(C)C(=O)N[C@@H](CC(N)=O)C(=O)N[C@@H](CCCCN)C(=O)NC(C)(C)C(=O)N[C@H](C(=O)N[C@@H](CCCNC(=N)N)C(=O)N[C@@H](CCC(N)=O)C(=O)N[C@@H](CCCNC(=N)N)C(=O)N[C@@H](CC1CCCCC1)C(N)=O)[C@@H](C)O
notes: also called compound No. 171
B5: Ac-[Glu23, D-Pro24, Cha27,36, Leu(Me)28, Lys30, Aib31]-PYY(23-36) (peptide)
peptide: Ac-E[dP]RH[Cha][tBuAla]NK[Aib]TRQR[Cha]-NH2
SMILES: CC(=O)N[C@@H](CCC(=O)O)C(=O)N1CCC[C@@H]1C(=O)N[C@@H](CCCNC(=N)N)C(=O)N[C@@H](Cc1c[nH]cn1)C(=O)N[C@@H](CC1CCCCC1)C(=O)N[C@@H](CC(C)(C)C)C(=O)N[C@@H](CC(N)=O)C(=O)N[C@@H](CCCCN)C(=O)NC(C)(C)C(=O)N[C@H](C(=O)N[C@@H](CCCNC(=N)N)C(=O)N[C@@H](CCC(N)=O)C(=O)N[C@@H](CCCNC(=N)N)C(=O)N[C@@H](CC1CCCCC1)C(N)=O)[C@@H](C)O
notes: also called compound No. 168
B6: Ac-[Tyr23, D-Pro24, Cha27,28,36, Aib31]-PYY(23-36) (peptide)
peptide: Ac-Y[dP]RH[Cha][Cha]NL[Aib]TRQR[Cha]-NH2
SMILES: CC(=O)N[C@@H](Cc1ccc(O)cc1)C(=O)N1CCC[C@@H]1C(=O)N[C@@H](CCCNC(=N)N)C(=O)N[C@@H](Cc1c[nH]cn1)C(=O)N[C@@H](CC1CCCCC1)C(=O)N[C@@H](CC1CCCCC1)C(=O)N[C@@H](CC(N)=O)C(=O)N[C@@H](CC(C)C)C(=O)NC(C)(C)C(=O)N[C@H](C(=O)N[C@@H](CCCNC(=N)N)C(=O)N[C@@H](CCC(N)=O)C(=O)N[C@@H](CCCNC(=N)N)C(=O)N[C@@H](CC1CCCCC1)C(N)=O)[C@@H](C)O
notes: also called compound No. 162
B7: Amidino-[Glu23, D-Pro24, Cha27,28,36, Lys30, Aib31]-PYY(23-36) (peptide)
peptide: Amidino-E[dP]RH[Cha][Cha]NK[Aib]TRQR[Cha]-NH2
SMILES: C[C@@H](O)[C@H](NC(=O)C(C)(C)NC(=O)[C@H](CCCCN)NC(=O)[C@H](CC(N)=O)NC(=O)[C@H](CC1CCCCC1)NC(=O)[C@H](CC1CCCCC1)NC(=O)[C@H](Cc1c[nH]cn1)NC(=O)[C@H](CCCNC(=N)N)NC(=O)[C@H]1CCCN1C(=O)[C@H](CCC(=O)O)NC(=N)N)C(=O)N[C@@H](CCCNC(=N)N)C(=O)N[C@@H](CCC(N)=O)C(=O)N[C@@H](CCCNC(=N)N)C(=O)N[C@@H](CC1CCCCC1)C(N)=O
notes: also called compound No. 190
B8: Ac-[Gly24, Cha27,28,36, Aib31]-PYY(23-36) (peptide)
peptide: Ac-SGRH[Cha][Cha]NL[Aib]TRQR[Cha]-NH2
SMILES: CC(=O)N[C@@H](CO)C(=O)NCC(=O)N[C@@H](CCCNC(=N)N)C(=O)N[C@@H](Cc1c[nH]cn1)C(=O)N[C@@H](CC1CCCCC1)C(=O)N[C@@H](CC1CCCCC1)C(=O)N[C@@H](CC(N)=O)C(=O)N[C@@H](CC(C)C)C(=O)NC(C)(C)C(=O)N[C@H](C(=O)N[C@@H](CCCNC(=N)N)C(=O)N[C@@H](CCC(N)=O)C(=O)N[C@@H](CCCNC(=N)N)C(=O)N[C@@H](CC1CCCCC1)C(N)=O)[C@@H](C)O
notes: also called compound No. 112
B9: Carbamoyl-[Asp23, D-Pro24, Cha27,28,36, Aib31]-PYY(23-36) (peptide)
peptide: Carbamoyl-D[dP]RH[Cha][Cha]NL[Aib]TRQR[Cha]-NH2
SMILES: CC(C)C[C@H](NC(=O)[C@H](CC(N)=O)NC(=O)[C@H](CC1CCCCC1)NC(=O)[C@H](CC1CCCCC1)NC(=O)[C@H](Cc1c[nH]cn1)NC(=O)[C@H](CCCNC(=N)N)NC(=O)[C@H]1CCCN1C(=O)[C@H](CC(=O)O)NC(N)=O)C(=O)NC(C)(C)C(=O)N[C@H](C(=O)N[C@@H](CCCNC(=N)N)C(=O)N[C@@H](CCC(N)=O)C(=O)N[C@@H](CCCNC(=N)N)C(=O)N[C@@H](CC1CCCCC1)C(N)=O)[C@@H](C)O
notes: also called compound No. 161; ureido-[Asp23,D-Pro24,Cha27,28,36,Aib31]-PYY(23-36)
B10: Amidino-[D-Pro24, Cha27,36, Leu(Me)28, Lys30, Aib31]-PYY(23-36) (peptide)
peptide: Amidino-S[dP]RH[Cha][tBuAla]NK[Aib]TRQR[Cha]-NH2
SMILES: C[C@@H](O)[C@H](NC(=O)C(C)(C)NC(=O)[C@H](CCCCN)NC(=O)[C@H](CC(N)=O)NC(=O)[C@H](CC(C)(C)C)NC(=O)[C@H](CC1CCCCC1)NC(=O)[C@H](Cc1c[nH]cn1)NC(=O)[C@H](CCCNC(=N)N)NC(=O)[C@H]1CCCN1C(=O)[C@H](CO)NC(=N)N)C(=O)N[C@@H](CCCNC(=N)N)C(=O)N[C@@H](CCC(N)=O)C(=O)N[C@@H](CCCNC(=N)N)C(=O)N[C@@H](CC1CCCCC1)C(N)=O
notes: also called compound No. 186

The text below walks through data of patent US20120172293A1 (Takeda / Millennium, published 2012).

Non-standard residues stand in square brackets, D forms with d. *: point of attachment. Morpholinocarbonyl = O=C(N1CCOCC1)*; Amidino = amidino group, N=C(N)*; tBuAla = CC(C)(C)C[C@H](N)C(=O)O; Cha = N[C@@H](CC1CCCCC1)C(=O)O; Aib = CC(C)(N)C(=O)O; Carbamoyl = NC(=O)*

The target in the first assay is T1, human Y2 receptor. Nature of the assay: cell-based or functional assay.
In the case of B1, the “GBA EC50 Ratio (vs PYY(3-36)), [35S]GTPγS” value was determined as 1.8 ratio.
The same measure, in the same setting: with B2 the figure was 0.84 ratio; with B3, 1.4 ratio.
B4: the “GBA EC50 Ratio (vs PYY(3-36)), [35S]GTPγS” value worked out at 1.6 ratio.
The same measure, in the same setting: with B5 the figure was 1.1 ratio; with B6, 2.6 ratio; with B7, 0.77 ratio.
Same read-out and setting: with B8 the figure was 3.9 ratio; with B9, 2.4 ratio; with B10, 0.69 ratio.

The next assay concerns the target T1, human Y2 receptor. Put plainly: RBA: [125I]-PYY displacement, hY2R/CHO membranes. The protocol: After incubation at room temperature for 60 minutes, the mixture was filtered through the cell harvester FilterMate (PerkinElmer) using UniFilter-96 GF/C treated with polyethylenimine (PEI) solution (20 mM Tris, 0.3% PEI, pH 7.4), and the filter was washed 3 times with a filtering buffer (50 mM Tris, 5 mM MgCl₂, 150 mM NaCl, 0.03% NaN₃, 0.05% CHAPS, pH 7.4). Thereafter, UniFilter-96 GF/C was dried in a mechanical drier for 1 hour, 15 μl of the liquid scintillator MicroScint O (PerkinElmer) was added to each well, and a measurement was taken using TopCount (PerkinElmer). The data obtained were analyzed using Prism to calculate the IC₅₀ value.
Regarding B1, the “IC50 Ratio (vs PYY(3-36))” value was 3.6 ratio.
Same read-out and setting: next, B2: 0.66 ratio.
Same read-out and setting: next, B3: 2.9 ratio; B4: 2.9 ratio.
Turning to B5, the “IC50 Ratio (vs PYY(3-36))” value was 0.73 ratio.
On the same count and under the same terms, with B6 the figure was 5.2 ratio.
The same measure, in the same setting: with B7 the figure was 0.66 ratio; with B8, 6.3 ratio; with B9, 4.1 ratio.
The same measure, in the same setting: next, B10: 0.43 ratio.
